T1: rat IL1RAP (rat, UniProt Q63621)
T1 chain: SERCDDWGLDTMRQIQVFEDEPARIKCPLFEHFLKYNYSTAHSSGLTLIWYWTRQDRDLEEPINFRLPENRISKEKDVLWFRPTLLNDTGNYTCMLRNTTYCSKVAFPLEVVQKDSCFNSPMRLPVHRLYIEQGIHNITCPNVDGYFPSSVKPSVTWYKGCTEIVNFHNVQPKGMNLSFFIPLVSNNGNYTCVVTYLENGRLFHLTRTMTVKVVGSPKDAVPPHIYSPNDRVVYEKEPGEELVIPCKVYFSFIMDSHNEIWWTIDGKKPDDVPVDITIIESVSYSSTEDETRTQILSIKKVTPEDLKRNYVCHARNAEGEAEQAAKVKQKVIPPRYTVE

T2: mouse IL1RAP (mouse, UniProt Q61730)
T2 chain: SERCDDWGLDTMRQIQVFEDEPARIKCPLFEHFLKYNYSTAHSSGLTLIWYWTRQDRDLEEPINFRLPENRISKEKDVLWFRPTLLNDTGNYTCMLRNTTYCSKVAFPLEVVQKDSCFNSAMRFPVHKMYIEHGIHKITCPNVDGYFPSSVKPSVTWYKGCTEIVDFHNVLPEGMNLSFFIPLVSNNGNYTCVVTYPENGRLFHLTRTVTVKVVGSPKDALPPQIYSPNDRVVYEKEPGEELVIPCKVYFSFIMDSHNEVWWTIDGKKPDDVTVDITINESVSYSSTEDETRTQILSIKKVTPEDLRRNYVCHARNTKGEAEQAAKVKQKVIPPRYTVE


Tests used:
rat IL1RAP = molecular target: T1, rat IL1RAP; assay: ELISA
mouse IL1RAP = molecular target: T2, mouse IL1RAP; assay: ELISA
[1] = molecular target: human IL1RAP Domain1+2 (aa21-234) (human, UniProt Q9NPH3); assay: ELISA
[2] = molecular target: human IL1RAP ectodomain (aa21-367) (human, UniProt Q9NPH3); assay: BLI

binding result (rat IL1RAP) | binding result (mouse IL1RAP) | binding result [1] | Kd [2] [nM] | Binder
no binding | no binding | no binding |  | 48A5 (antibody, V domains shown) VH: QEQLEESEGGLFKPTETLTLTCTVSGFSLSYDITWVRQAPGNGLEWIGTIDTSSNTYHATWAKSRSTITKNTNLNTVTLKMTSLTAADTATYFCARGGVHAYAYAPAAFDPWGPGTLVTISS VL: APVLTQTPSPVSAAVGGTVTISCQSSQSVYNDAYLAWYQQKPGQPPKLLIYLASTLASGVPSRFSGSGSGTQFTLTISGVQCEDAATYYCQGAYYSNDWYYVFGGGTEVVVK
 |  | no binding |  | 43F5 (antibody, V domains shown) VH: QSLEESGGRLVTPGTPLTLTCKASGFSLSNYWMSWVRQAPGKGLEWIGFITSSDNTYYASWAKGRFTISKASSTTVGLKMTSPTTEDTATYFCARDISGINSVVLWGQGTLVTVSS VL: DVVMTQTPASVSEPVGGTVTINCQASQSIDSYLSWYQQKPGQPPKFLIYGASNLASGVPSRFKGSRSGTEYTLTISDLECADAATYYCQCTDYSINYIGAFGGGTKVVVE
no binding | no binding | no binding | 0.285 | 3G5 (antibody, V domains shown) VH: EVQLVESGGVLVKPGGSLKLSCAASGFTFSDYAMSWVRQTPEKRLEWVATITDGGSYAYYTDDVKGRFTVSRDNARNNLFLQMSHLRSEDTGIYYCSRDRWPYYFDFWGRGTTLTVSS VL: DIQMTQSPTSLSVSVGETVTITCRISENIYSNLAWYQQKEGKSPQLLVYAATKLADGVPSRFSGSGSGTQYSLKINSLQSEDFGNYYCQHFWTTPRTFGGGTKVEIK

— patent US20260317434 (published 2026)
